The text below walks through data of paper PMC11969024 (2025).

B1: peptide HD2 (from tick evasin EVA4) / CCL1 (biotinylated, synthetic) (parent complex)
chain 1: EEDDYTAYAPLTCYFT
chain 2: KSMQVPFSRCCFSFAEQEIPLRAILCYRNTSSICSNEGLIFKLKRGKEACALDTVGWVQRHRKMLRHCPSKRK
B2: peptide HD2 (from tick evasin EVA4) / CXCL14 (biotinylated, synthetic) (parent complex)
chain 1: EEDDYTAYAPLTCYFT
chain 2: SKCKCSRKGPKIRYSDVKKLEMKPKYPHCEEKMVIITTKSVSRYRGQEHCLHPKLQSTKRFIKWYNAWNEKRRVYEE

The variants in the first assay derive from B1.
As for chain 1 Y8F, the enrichment is -0.41 log2 (difference from the parental peptide).
Still for that read-out and setting: the result for chain 1 Y8L reads -7.27 log2 (difference from the parental peptide); that for chain 1 Y8V, -4.63 log2 (difference from the parental peptide); that for chain 1 D3E, 1.49 log2 (difference from the parental peptide).
In the case of chain 1 E1G, the enrichment was -1.01 log2 (difference from the parental peptide).
With chain 1 T6C, the enrichment was -10.4 log2 (difference from the parental peptide).
Consider chain 1 T6E, for which the enrichment is 3.09 log2 (difference from the parental peptide).
Still for that read-out and setting: the figure for chain 1 T6F is -4.18 log2 (difference from the parental peptide); for chain 1 T6Q it is 1.62 log2 (difference from the parental peptide).
Still for that read-out and setting: the result for chain 1 T6V reads -5.45 log2 (difference from the parental peptide); that for chain 1 D4H, -7 log2 (difference from the parental peptide).
For the variant chain 1 D4I, the enrichment was -6.7 log2 (difference from the parental peptide).
The same measure, in the same setting: the figure for chain 1 D4F is -6.41 log2 (difference from the parental peptide); for chain 1 T12R it is -1.56 log2 (difference from the parental peptide); for chain 1 T12P it is 0.359 log2 (difference from the parental peptide).
Same read-out and setting: the figure for chain 1 T12S is -1.12 log2 (difference from the parental peptide); for chain 1 T12C it is -5.86 log2 (difference from the parental peptide).
chain 1 T12Y: the enrichment is 1.88 log2 (difference from the parental peptide).
On the same count and under the same terms, the figure for chain 1 T12V is -1.56 log2 (difference from the parental peptide).
Still for that read-out and setting: the figure for chain 1 A7M is 1.33 log2 (difference from the parental peptide).
Still for that read-out and setting: the result for chain 1 A7N reads -1.23 log2 (difference from the parental peptide); that for chain 1 A7L, -2.16 log2 (difference from the parental peptide).
Turning to chain 1 A7F, the enrichment is -3.93 log2 (difference from the parental peptide).
The same measure, in the same setting: the result for chain 1 A7H reads -2.76 log2 (difference from the parental peptide); that for chain 1 E2H, -3.7 log2 (difference from the parental peptide); that for chain 1 A9Y, -5.89 log2 (difference from the parental peptide).
On the same count and under the same terms, the result for chain 1 A9E reads 2.72 log2 (difference from the parental peptide); that for chain 1 L11W, -0.114 log2 (difference from the parental peptide); that for chain 1 L11R, 0.643 log2 (difference from the parental peptide).
On the same count and under the same terms, the figure for chain 1 L11S is -4.97 log2 (difference from the parental peptide); for chain 1 L11A it is -2.67 log2 (difference from the parental peptide); for chain 1 L11Q it is 1.31 log2 (difference from the parental peptide).
Consider chain 1 C13G, for which the enrichment is -9.66 log2 (difference from the parental peptide).
On the same count and under the same terms, the figure for chain 1 C13S is -4.71 log2 (difference from the parental peptide).
Same read-out and setting: the result for chain 1 Y5L reads -5.06 log2 (difference from the parental peptide); that for chain 1 F15N, -1.79 log2 (difference from the parental peptide).
On the same count and under the same terms, the result for chain 1 F15A reads 2.04 log2 (difference from the parental peptide); that for chain 1 F15S, -0.0654 log2 (difference from the parental peptide); that for chain 1 T16N, -0.351 log2 (difference from the parental peptide).
As to chain 1 T16C, the enrichment was 0.749 log2 (difference from the parental peptide).
Still for that read-out and setting: the result for chain 1 T16F reads -0.729 log2 (difference from the parental peptide); that for chain 1 Y14F, 0.0997 log2 (difference from the parental peptide).
Still for that read-out and setting: the figure for chain 1 Y14I is -4.18 log2 (difference from the parental peptide).

Variants of B2 are the subject of another assay.
chain 1 Y5I: the enrichment is 0.188 log2 (difference from the parental peptide).
In the case of chain 1 Y5H, the enrichment was -3.59 log2 (difference from the parental peptide).
On the same count and under the same terms, the result for chain 1 Y5C reads -4.43 log2 (difference from the parental peptide).
For the variant chain 1 A9M, the enrichment was 0.996 log2 (difference from the parental peptide).
On the same count and under the same terms, the figure for chain 1 A9L is 0.282 log2 (difference from the parental peptide).
The same measure, in the same setting: the figure for chain 1 A9W is 1.99 log2 (difference from the parental peptide); for chain 1 A9D it is -5.49 log2 (difference from the parental peptide).
Same read-out and setting: the result for chain 1 A9S reads -1.59 log2 (difference from the parental peptide).
Consider chain 1 A9I, for which the enrichment is 0.725 log2 (difference from the parental peptide).
Still for that read-out and setting: the result for chain 1 A9Y reads -5.34 log2 (difference from the parental peptide).
On to chain 1 A9E, for which the enrichment is -4.09 log2 (difference from the parental peptide).
Regarding chain 1 P10V, the enrichment was 0.331 log2 (difference from the parental peptide).
Same read-out and setting: the figure for chain 1 P10S is -0.979 log2 (difference from the parental peptide); for chain 1 P10A it is 2.1 log2 (difference from the parental peptide).
Regarding chain 1 P10G, the enrichment is -1.01 log2 (difference from the parental peptide).
On the same count and under the same terms, the figure for chain 1 P10W is 1.96 log2 (difference from the parental peptide); for chain 1 C13W it is -7.91 log2 (difference from the parental peptide); for chain 1 C13D it is -5.83 log2 (difference from the parental peptide).
The same measure, in the same setting: the figure for chain 1 C13A is -6.89 log2 (difference from the parental peptide); for chain 1 C13E it is -8.19 log2 (difference from the parental peptide); for chain 1 C13V it is 2.72 log2 (difference from the parental peptide).
On the same count and under the same terms, the result for chain 1 C13G reads -8.69 log2 (difference from the parental peptide); that for chain 1 D4N, 1.31 log2 (difference from the parental peptide).
Turning to chain 1 D4W, the enrichment was -5.85 log2 (difference from the parental peptide).
Same read-out and setting: the result for chain 1 D4I reads 0.635 log2 (difference from the parental peptide); that for chain 1 D4E, -4.2 log2 (difference from the parental peptide); that for chain 1 D4S, -1.33 log2 (difference from the parental peptide).
The same measure, in the same setting: the figure for chain 1 D4Y is -1.42 log2 (difference from the parental peptide); for chain 1 Y14W it is -6.55 log2 (difference from the parental peptide); for chain 1 Y14L it is -8.75 log2 (difference from the parental peptide).
Same read-out and setting: the result for chain 1 Y14Q reads -6.31 log2 (difference from the parental peptide); that for chain 1 Y14H, 2.79 log2 (difference from the parental peptide).
For chain 1 E2D, the enrichment is 0.377 log2 (difference from the parental peptide).
For chain 1 E2W, the enrichment is 0.435 log2 (difference from the parental peptide).
Still for that read-out and setting: the figure for chain 1 E2T is -2.03 log2 (difference from the parental peptide); for chain 1 E2L it is -1.86 log2 (difference from the parental peptide); for chain 1 E2S it is 0.196 log2 (difference from the parental peptide).
For the variant chain 1 E1Y, the enrichment was 0.958 log2 (difference from the parental peptide).
chain 1 E1L: the enrichment was 0.456 log2 (difference from the parental peptide).
On the same count and under the same terms, the figure for chain 1 E1I is 3.24 log2 (difference from the parental peptide); for chain 1 E1D it is 2.43 log2 (difference from the parental peptide).
On the same count and under the same terms, the figure for chain 1 E1F is 0.23 log2 (difference from the parental peptide); for chain 1 E1W it is -4.16 log2 (difference from the parental peptide); for chain 1 E1T it is 0.267 log2 (difference from the parental peptide).
On the same count and under the same terms, the figure for chain 1 D3E is -1.97 log2 (difference from the parental peptide); for chain 1 D3P it is -5.77 log2 (difference from the parental peptide).
Regarding chain 1 D3T, the enrichment is -5.87 log2 (difference from the parental peptide).
Same read-out and setting: the result for chain 1 T6L reads 0.717 log2 (difference from the parental peptide); that for chain 1 T6D, 3.46 log2 (difference from the parental peptide); that for chain 1 T6G, 4.19 log2 (difference from the parental peptide).
Same read-out and setting: the figure for chain 1 T6I is 0.467 log2 (difference from the parental peptide); for chain 1 T6A it is 0.332 log2 (difference from the parental peptide); for chain 1 T6C it is -9.38 log2 (difference from the parental peptide).
On the same count and under the same terms, the result for chain 1 T6W reads 5.58 log2 (difference from the parental peptide).
Regarding chain 1 T6H, the enrichment was -0.995 log2 (difference from the parental peptide).
On the same count and under the same terms, the result for chain 1 T6F reads 0.389 log2 (difference from the parental peptide); that for chain 1 T6Q, 0.84 log2 (difference from the parental peptide); that for chain 1 T6V, -0.538 log2 (difference from the parental peptide).
Same read-out and setting: the result for chain 1 T6R reads 3.99 log2 (difference from the parental peptide); that for chain 1 T12S, -7.83 log2 (difference from the parental peptide); that for chain 1 T12Q, -4.89 log2 (difference from the parental peptide).
As for chain 1 T12K, the enrichment was -5.85 log2 (difference from the parental peptide).
Same read-out and setting: the figure for chain 1 T12R is -7.34 log2 (difference from the parental peptide); for chain 1 T12H it is -1.2 log2 (difference from the parental peptide); for chain 1 T12F it is 2.31 log2 (difference from the parental peptide).
On the same count and under the same terms, the figure for chain 1 T12C is -5.89 log2 (difference from the parental peptide); for chain 1 T12L it is 1.89 log2 (difference from the parental peptide); for chain 1 T12P it is -5.93 log2 (difference from the parental peptide).
Still for that read-out and setting: the figure for chain 1 T12Y is 2.9 log2 (difference from the parental peptide); for chain 1 Y8V it is 3.87 log2 (difference from the parental peptide).
As for chain 1 Y8W, the enrichment was 0.649 log2 (difference from the parental peptide).
For chain 1 Y8D, the enrichment is 2.61 log2 (difference from the parental peptide).
On the same count and under the same terms, the figure for chain 1 Y8I is -6.06 log2 (difference from the parental peptide); for chain 1 Y8F it is -1.72 log2 (difference from the parental peptide).
On the same count and under the same terms, the result for chain 1 F15I reads -3.52 log2 (difference from the parental peptide); that for chain 1 F15R, -5.53 log2 (difference from the parental peptide).
Still for that read-out and setting: the figure for chain 1 F15Q is 1.93 log2 (difference from the parental peptide).
In the case of chain 1 F15A, the enrichment was -5.37 log2 (difference from the parental peptide).
On the same count and under the same terms, the figure for chain 1 A7Q is -3.16 log2 (difference from the parental peptide); for chain 1 A7E it is 2.45 log2 (difference from the parental peptide).
On to chain 1 A7L, for which the enrichment was 0.408 log2 (difference from the parental peptide).
Same read-out and setting: the figure for chain 1 A7F is 2.13 log2 (difference from the parental peptide); for chain 1 A7V it is -1.42 log2 (difference from the parental peptide).
On to chain 1 A7D, for which the enrichment was 3.18 log2 (difference from the parental peptide).
Still for that read-out and setting: the result for chain 1 A7K reads 3.78 log2 (difference from the parental peptide).
For the variant chain 1 A7P, the enrichment was -3.32 log2 (difference from the parental peptide).
Same read-out and setting: the result for chain 1 A7I reads 0.79 log2 (difference from the parental peptide); that for chain 1 A7M, -3.2 log2 (difference from the parental peptide).
Still for that read-out and setting: the figure for chain 1 A7N is 2.93 log2 (difference from the parental peptide); for chain 1 T16V it is -2.39 log2 (difference from the parental peptide).
Same read-out and setting: the result for chain 1 T16K reads 0.732 log2 (difference from the parental peptide); that for chain 1 T16E, -5.76 log2 (difference from the parental peptide).
On to chain 1 T16M, for which the enrichment was 1.39 log2 (difference from the parental peptide).
Same read-out and setting: the figure for chain 1 T16A is -3.04 log2 (difference from the parental peptide); for chain 1 T16Q it is -5.09 log2 (difference from the parental peptide); for chain 1 T16N it is -3.97 log2 (difference from the parental peptide).
Same read-out and setting: the result for chain 1 T16P reads -4.73 log2 (difference from the parental peptide).
Still for that read-out and setting: the figure for chain 1 L11W is 0.85 log2 (difference from the parental peptide).
Take chain 1 L11Q: the enrichment is -4.52 log2 (difference from the parental peptide).
Still for that read-out and setting: the figure for chain 1 L11D is 0.52 log2 (difference from the parental peptide); for chain 1 L11H it is 3.17 log2 (difference from the parental peptide); for chain 1 L11N it is -0.349 log2 (difference from the parental peptide).
Same read-out and setting: the result for chain 1 L11M reads 2.64 log2 (difference from the parental peptide); that for chain 1 L11T, -4.92 log2 (difference from the parental peptide).
For the variant chain 1 L11F, the enrichment is 1.48 log2 (difference from the parental peptide).
The same measure, in the same setting: the result for chain 1 L11S reads -6.87 log2 (difference from the parental peptide); that for chain 1 L11I, 0.571 log2 (difference from the parental peptide).
